Experimental data reported in publication PMC7612745 (Nature, 2019).
Where no end group is shown, it is not given here.

T1: Thermus thermophilus multidrug resistance proteins A and B (TmrAB), wild type heterodimer (Thermus thermophilus, UniProt Q72J05;Q72J04)
T1 sequence 1: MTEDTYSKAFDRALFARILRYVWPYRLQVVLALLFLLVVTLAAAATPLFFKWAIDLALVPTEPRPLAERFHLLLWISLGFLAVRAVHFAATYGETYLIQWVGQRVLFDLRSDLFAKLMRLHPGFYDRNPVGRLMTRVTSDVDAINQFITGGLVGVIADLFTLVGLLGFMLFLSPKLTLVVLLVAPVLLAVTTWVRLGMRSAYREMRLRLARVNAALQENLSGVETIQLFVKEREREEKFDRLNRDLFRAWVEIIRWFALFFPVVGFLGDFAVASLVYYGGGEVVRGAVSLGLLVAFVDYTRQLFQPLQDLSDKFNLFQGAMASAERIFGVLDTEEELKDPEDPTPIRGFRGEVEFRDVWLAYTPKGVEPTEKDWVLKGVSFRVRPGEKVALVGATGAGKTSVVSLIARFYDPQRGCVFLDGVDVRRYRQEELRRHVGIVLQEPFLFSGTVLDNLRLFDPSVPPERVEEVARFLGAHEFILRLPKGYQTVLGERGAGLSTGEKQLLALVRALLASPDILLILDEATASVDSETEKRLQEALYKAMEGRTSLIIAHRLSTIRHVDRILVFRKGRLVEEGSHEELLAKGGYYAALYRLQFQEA
T1 sequence 2: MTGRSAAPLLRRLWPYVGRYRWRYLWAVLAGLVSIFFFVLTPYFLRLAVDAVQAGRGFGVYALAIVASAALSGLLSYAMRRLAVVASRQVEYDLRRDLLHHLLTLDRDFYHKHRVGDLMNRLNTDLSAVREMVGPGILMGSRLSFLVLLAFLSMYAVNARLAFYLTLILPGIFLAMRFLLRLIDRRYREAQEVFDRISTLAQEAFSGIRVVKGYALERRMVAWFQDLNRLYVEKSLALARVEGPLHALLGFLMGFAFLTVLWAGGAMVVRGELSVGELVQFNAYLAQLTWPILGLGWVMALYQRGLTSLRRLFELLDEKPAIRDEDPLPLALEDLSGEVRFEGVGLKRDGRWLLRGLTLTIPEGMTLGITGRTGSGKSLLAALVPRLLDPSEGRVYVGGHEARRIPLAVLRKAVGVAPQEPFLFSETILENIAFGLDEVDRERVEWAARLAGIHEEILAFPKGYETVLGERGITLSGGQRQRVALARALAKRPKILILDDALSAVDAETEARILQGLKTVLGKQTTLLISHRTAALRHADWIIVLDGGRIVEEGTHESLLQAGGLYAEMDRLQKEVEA

B1: Nb9F10, TmrAB-specific nanobody (alpaca) (VHH)
VHH: QLQLVESGGGLVQPGDSLRLSCAVSGSALDYNAIGWFRQAPGKEREGVACISKITGNTAYADSVKGRFTISRDNAKNTVHLQMNSLKPEDTAVYYCATVTAVLLPGRCVPGKYWGQGTPVTVSS

Tests used:
[1] = biological target: T1, Thermus thermophilus multidrug …; assay: fluorescence polarisation
[2] = biological target: isolated nucleotide-binding domain of TmrB (NBD of TmrB) (Thermus thermophilus HB27, UniProt Q72J04); assay: SEC

Binder	binding result [1]	binding result [2]
RRYC(fluorescein)KSTEL [fluorescent peptide RRY(C^Fluorescein)KSTEL (C4F)]	binds	–
B1	–	binds
